Source: ChEMBL document CHEMBL1155874, “Carbonic anhydrase activators: Activation of the human cytosolic isozyme III and membrane-associated isoform IV with amino acids and amines” (Bioorg Med Chem Lett, 2008)

B1: Carbonic anhydrase 4 (Homo sapiens), P22748 (protein)
chain: MRMLLALLALSAARPSASAESHWCYEVQAESSNYPCLVPVKWGGNCQKDRQSPINIVTTKAKVDKKLGRFFFSGYDKKQTWTVQNNGHSVMMLLENKASISGGGLPAPYQAKQLHLHWSDLPYKGSEHSLDGEHFAMEMHIVHEKEKGTSRNVKEAQDPEDEIAVLAFLVEAGTQVNEGFQPLVEALSNIPKPEMSTTMAESSLLDLLPKEEKLRHYFRYLGSLTTPTCDEKVVWTVFREPIQLHREQILAFSQKLYYDKEQTVSMKDNVRPLQQLGQRTVIKSGAPGRPLPWALPALLGPMLACLLAGFLR
B2: Carbonic anhydrase 3 (Homo sapiens), P07451 (protein)
chain: MAKEWGYASHNGPDHWHELFPNAKGENQSPVELHTKDIRHDPSLQPWSVSYDGGSAKTILNNGKTCRVVFDDTYDRSMLRGGPLPGPYRLRQFHLHWGSSDDHGSEHTVDGVKYAAELHLVHWNPKYNTFKEALKQRDGIAVIGIFLKIGHENGEFQIFLDALDKIKTKGKEAPFTKFDPSCLFPACRDYWTYQGSFTTPPCEECIVWLLLKEPMTVSSDQMAKLRSLLSSAENEPPVPLVSNWRPPQPINNRVVRASFK

Legend:
[1] = substrate: N[C@@H](Cc1c[nH]cn1)C(=O)O; assay: (§1) Activity of human recombinant truncated CA4 at 10 uM stopped-flow CO2 hydration method
[2] = substrate: N[C@H](Cc1c[nH]cn1)C(=O)O; assay: as §1
[3] = substrate: N[C@@H](Cc1c[nH]cn1)C(=O)O; assay: (§2) Activity of human recombinant CA3 at 10 uM stopped-flow CO2 hydration method
[4] = substrate: N[C@H](Cc1c[nH]cn1)C(=O)O; assay: as §2

| Protein | kcat [1] [×10⁶ /s] | kcat [2] [×10⁶ /s] | kcat [3] [×10⁴ /s] | kcat [4] [×10⁴ /s] |
| --- | --- | --- | --- | --- |
| B1 | 4.3 | 3.8 |  |  |
| B2 |  |  | 1.8 | 16.9 |
